Laboratory results taken from the supplement of paper PMC7877785.
± gives the uncertainty stated by the source.

Experiment: self-splicing fitness, log relative to wild type (ln ratio); higher = more splicing; Tetrahymena group I intron in knt gene, E. coli kanamycin selection, DiMSum; sequences stand for … in CUCUCU…GGAGGGAAAAGUUAUCAGGCAUGCACCUGGUAGCUAGUCUUUAAACCAAUAGAUUGCAUCGGUUUAAAAGGCAAGACCGUCAAAUUGCGGGAAAGGGGUCAACAGCCGUUCAGUACCAAGUCUCAGGGGAAACUUUGAGAUGGCCUUGCAAAGGGUAUGGUAAUAAGCUGACGGACAUGGUCCUAACCACGCAGCCAAGUCCUAAGUCAACAGAUCUUCUGUUGAUAUGGAUGCAGUUCACAGACUAAAUGUCGGUCGGGGAAGAUGUAUUCUUCUCAUAAGAUAUAGUCGGACCUCUCCUUAAUGGGAGCUAGCGGAUGAAGUGAUGCAACACUGGAGCCGCUGGGAACUAAUUUGUAUGCGAAAGUAUAUUGAUUAGUUUUGGAGUACUCGUGGUCG
In short: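 Pooled colonies went to amplicon sequencing on an Illumina HiSeq 2500 after six replicate transformations. The plates were LB agar with 100 μg/mL carbenicillin, 50 μM IPTG and 0.2% rhamnose, with or without 25 μg/mL kanamycin, incubated overnight at 37°C or 30°C. The E. coli BL21(DE3) library had all eight P1ex-region intron nucleotides randomised, the intron placed in the knt kanamycin-resistance gene on pET-22b(+). DiMSum fitness is the error-weighted combination of replicate fold changes, kanamycin against none, normalised to wild type.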

Sequence: AUGGAGCAAUAUUACGGAUC
- self-splicing fitness (ln) (30 °C): -2.51 ± 0.25
- self-splicing fitness (ln) (37 °C): -2.57 ± 0.36

Sequence: AAGAAGCAAUAUUACGCUCU
- self-splicing fitness (ln) (30 °C): -3.54 ± 0.24
- self-splicing fitness (ln) (37 °C): -1.37 ± 0.18

Sequence: CAAAAGCAAUAUUACGCCCU
- self-splicing fitness (ln) (30 °C): -2.13 ± 0.17
- self-splicing fitness (ln) (37 °C): -0.434 ± 0.17

Sequence: AUAUAGCAAUAUUACGACAA
- self-splicing fitness (ln) (30 °C): -0.546 ± 0.21
- self-splicing fitness (ln) (37 °C): 0.567 ± 0.18

Sequence: GGAUAGCAAUAUUACGGAAU
- self-splicing fitness (ln) (30 °C): -2.48 ± 0.17
- self-splicing fitness (ln) (37 °C): -2.33 ± 0.24

Sequence: UCACAGCAAUAUUACGCCCA
- self-splicing fitness (ln) (30 °C): -1.47 ± 0.19
- self-splicing fitness (ln) (37 °C): 0.000225 ± 0.15

Sequence: GUGUAGCAAUAUUACGGUAA
- self-splicing fitness (ln) (30 °C): -2.48 ± 0.14
- self-splicing fitness (ln) (37 °C): -1.49 ± 0.11

Sequence: CCACAGCAAUAUUACGACGU
- self-splicing fitness (ln) (30 °C): -3.18 ± 0.18
- self-splicing fitness (ln) (37 °C): -2.52 ± 0.15

Sequence: AUUCAGCAAUAUUACGCCUC
- self-splicing fitness (ln) (30 °C): -1.43 ± 0.15
- self-splicing fitness (ln) (37 °C): 0.286 ± 0.16

Sequence: AAUCAGCAAUAUUACGGCGA
- self-splicing fitness (ln) (30 °C): -0.0143 ± 0.073
- self-splicing fitness (ln) (37 °C): 0.557 ± 0.093

Sequence: UGCGAGCAAUAUUACGUUCA
- self-splicing fitness (ln) (30 °C): -1.45 ± 0.11
- self-splicing fitness (ln) (37 °C): -0.32 ± 0.15

Sequence: GGCCAGCAAUAUUACGCGUG
- self-splicing fitness (ln) (30 °C): -1.22 ± 0.079
- self-splicing fitness (ln) (37 °C): -0.385 ± 0.092

Sequence: AAUUAGCAAUAUUACGGCCA
- self-splicing fitness (ln) (30 °C): -0.657 ± 0.14
- self-splicing fitness (ln) (37 °C): 0.518 ± 0.17

Sequence: UGAAAGCAAUAUUACGGGAC
- self-splicing fitness (ln) (30 °C): -3.12 ± 0.24
- self-splicing fitness (ln) (37 °C): -2.31 ± 0.21

Sequence: ACCGAGCAAUAUUACGUCAC
- self-splicing fitness (ln) (30 °C): -3.34 ± 0.27
- self-splicing fitness (ln) (37 °C): -2 ± 0.21

Sequence: CUAAAGCAAUAUUACGUACG
- self-splicing fitness (ln) (30 °C): 0.59 ± 0.095
- self-splicing fitness (ln) (37 °C): 0.0866 ± 0.099

Sequence: AUAGAGCAAUAUUACGUCAC
- self-splicing fitness (ln) (30 °C): -1.53 ± 0.22
- self-splicing fitness (ln) (37 °C): -0.0932 ± 0.22

Sequence: UAGAAGCAAUAUUACGAGGA
- self-splicing fitness (ln) (30 °C): -3.7 ± 0.2
- self-splicing fitness (ln) (37 °C): -2.06 ± 0.15

Sequence: GCCUAGCAAUAUUACGAUAC
- self-splicing fitness (ln) (30 °C): -2.39 ± 0.11
- self-splicing fitness (ln) (37 °C): -0.543 ± 0.1

Sequence: CUAGAGCAAUAUUACGGCGA
- self-splicing fitness (ln) (30 °C): -3.28 ± 0.32

Sequence: AGAGAGCAAUAUUACGACGC
- self-splicing fitness (ln) (30 °C): -2.54 ± 0.34
- self-splicing fitness (ln) (37 °C): -0.3 ± 0.28

Sequence: UGAAAGCAAUAUUACGCUAC
- self-splicing fitness (ln) (30 °C): -3.01 ± 0.28
- self-splicing fitness (ln) (37 °C): -1.75 ± 0.33

Sequence: UCAAAGCAAUAUUACGAUUA
- self-splicing fitness (ln) (30 °C): -1.26 ± 0.11
- self-splicing fitness (ln) (37 °C): -1.16 ± 0.12

Sequence: UGUUAGCAAUAUUACGUUUG
- self-splicing fitness (ln) (30 °C): -2.14 ± 0.16
- self-splicing fitness (ln) (37 °C): -1.26 ± 0.18

Sequence: ACCUAGCAAUAUUACGUUGA
- self-splicing fitness (ln) (30 °C): -1.98 ± 0.087
- self-splicing fitness (ln) (37 °C): -1.54 ± 0.098

Sequence: CGGUAGCAAUAUUACGUUAC
- self-splicing fitness (ln) (30 °C): -3.32 ± 0.36
- self-splicing fitness (ln) (37 °C): -2.09 ± 0.31

Sequence: CACCAGCAAUAUUACGAUAU
- self-splicing fitness (ln) (30 °C): -3.22 ± 0.17
- self-splicing fitness (ln) (37 °C): -2.46 ± 0.2

Sequence: CAACAGCAAUAUUACGAUGA
- self-splicing fitness (ln) (30 °C): -1.53 ± 0.12
- self-splicing fitness (ln) (37 °C): -0.678 ± 0.089

Sequence: UCGAAGCAAUAUUACGAAGC
- self-splicing fitness (ln) (37 °C): -1.84 ± 0.47

Sequence: CCACAGCAAUAUUACGCGCG
- self-splicing fitness (ln) (30 °C): -1.02 ± 0.042
- self-splicing fitness (ln) (37 °C): -0.161 ± 0.056

Sequence: AACGAGCAAUAUUACGUAUU
- self-splicing fitness (ln) (30 °C): -3.1 ± 0.16
- self-splicing fitness (ln) (37 °C): -1.85 ± 0.14

Sequence: GCCUAGCAAUAUUACGGAUA
- self-splicing fitness (ln) (30 °C): -1.01 ± 0.17
- self-splicing fitness (ln) (37 °C): -0.705 ± 0.13

Sequence: GGGUAGCAAUAUUACGAUCA
- self-splicing fitness (ln) (30 °C): -0.0146 ± 0.13
- self-splicing fitness (ln) (37 °C): 0.0752 ± 0.16

Sequence: UGCUAGCAAUAUUACGCUGA
- self-splicing fitness (ln) (30 °C): -1.25 ± 0.12
- self-splicing fitness (ln) (37 °C): -1.18 ± 0.13

Sequence: UCCGAGCAAUAUUACGAUAG
- self-splicing fitness (ln) (30 °C): -3.72 ± 0.24
- self-splicing fitness (ln) (37 °C): -2.22 ± 0.2

Sequence: AGGCAGCAAUAUUACGGGUC
- self-splicing fitness (ln) (30 °C): -2.67 ± 0.17
- self-splicing fitness (ln) (37 °C): -3.01 ± 0.22

Sequence: CAGAAGCAAUAUUACGGACC
- self-splicing fitness (ln) (30 °C): -3.56 ± 0.48
- self-splicing fitness (ln) (37 °C): -2.5 ± 0.46

Sequence: AAAUAGCAAUAUUACGGUCG
- self-splicing fitness (ln) (30 °C): -0.942 ± 0.065
- self-splicing fitness (ln) (37 °C): -0.272 ± 0.095
